First the molecules themselves.
B1: Igκ-VHVL(2A7)-Fc (scFv, V domains shown)
VH: QVTLKESGPGILQPSQTLSLTCSFSGFSLSTSGMGVVWIRQPSGKGLEWLAHIWWDDDKYYNTALKSGLTISKDTSKNQVFLKIASVDTADTATYYCARMPYYDYDGGVAYWGQGTLVTVSA
VL: DIVMTQSPASLVVSLGQRATISCRASKSVSTSGYSYMYWYQQKPGQPPKLLIYLASNLESGVPARFSGSGSGTDFTLNIHPVEEEDAATYYCQHSRELPLTFGAGTKLELK
notes: as the VH of m1 (2A7 VH); linker, printed as (GlyGlyGlyGlySer)3; as the VL of m1 (2A7 VL1); also called Igκ-VHVL-Fc; 2A7-derived scFv; source: HEK293T, transfected; secreted into supernatant, or in cell lysate; not shown: Fc (human IgG1), C-terminal, kept
B2: mouse monoclonal antibody against HBx (anti-HBx 2A7) (antibody, V domains shown)
VH: B1 VH
VL: B1 VL
notes: 2A7 VH; 2A7 CH, mapped to mouse IGHG1 (immunoglobulin heavy constant gamma 1); 2A7 VL1; 2A7 CK, κ-type light chain constant region; IgG1 subclass, κ light chain (VL1/CK and VH/CH confirmed by LC-MS/MS); also called anti-HBx mAb 2A7; 2A7 mAb; source: SP2/0 hybridoma cell line, purified; also recovered from lysed Huh-7 or HepG2 cells after delivery with TR16-Tat
B3: recombinant 2A7 antibody (antibody, V domains shown)
VH: B1 VH
VL: B1 VL
notes: as the VH of m1 (2A7 VH); mouse IgG2a heavy chain constant fragment; as the VL of m1 (2A7 VL1); mouse κ light chain constant fragment; source: Expi293F cells, co-transfected, purified from culture supernatant (Protein A)

Where no end group is shown, it is not given here.

We go through 23 molecules from paper PMC6937242, “Characterization and engineering of broadly reactive monoclonal antibody against hepatitis B virus X protein that blocks its interaction with DDB1” (Scientific Reports, 2019).

One experiment deals with mouse monoclonal antibody against HBx (anti-HBx 2A7). As to the kind of experiment: Western blot with densitometry. The conditions noted are these: HEK293T lysates; 2A7 signal adjusted against anti-FLAG signal, normalized against BPS HBx; parent: 100.
In the case of “FLAG-tagged wild type BPS HBx 77-79 (3 Ala)”, the percent of parent came to 97%.

On to “FLAG-tagged wild type BPS HBx 80-82 (3 Ala)”, for which the percent of parent was determined as 450%. As for “FLAG-tagged wild type BPS HBx 98-100 (3 Ala)”, the percent of parent amounted to 140%. Same read-out and setting: to “FLAG-tagged wild type BPS HBx 101-103 (3 Ala)” belongs 296%; to “FLAG-tagged wild type BPS HBx 104-106 (3 Ala)”, 187%; to “FLAG-tagged wild type BPS HBx H86A; R87A; N88A”, 334%. Still for that read-out and setting: to FLAG-tagged wild type BPS HBx H94A belongs 0%. The same measure, in the same setting: the figure for FLAG-tagged wild type BPS HBx K91A is 36%. Consider FLAG-tagged wild type BPS HBx K95A, for which the percent of parent was found to be 0%. As to “FLAG-tagged wild type BPS HBx K95A; R96A; T97A”, the percent of parent amounted to 0%. Same read-out and setting: the figure for FLAG-tagged wild type BPS HBx L89A is 151%; for “FLAG-tagged wild type BPS HBx L89A; P90A; K91A” it is 36%; for FLAG-tagged wild type BPS HBx L93A it is 25%. Still for that read-out and setting: the figure for FLAG-tagged wild type BPS HBx L98A is 90%; for FLAG-tagged wild type BPS HBx P90A it is 7%. The same measure, in the same setting: the figure for FLAG-tagged wild type BPS HBx R96A is 81%; for FLAG-tagged wild type BPS HBx T97A it is 99%; for “FLAG-tagged wild type BPS HBx V83A; N84A” it is 349%. As for FLAG-tagged wild type BPS HBx V92A, the percent of parent came to 2%. In the case of “FLAG-tagged wild type BPS HBx V92A; L93A; H94A”, the percent of parent was found to be 0%.

The next experiment concerns the target T1, biotinylated BPS HBx peptide a.a. 89–104 (Hepatitis B virus genotype B, isolate …, UniProt P20975, strain, also: biotinylated).
T1 construct: HBx of hepatitis B virus genotype B isolate BPS, a.a; a.a; also called peptide harboring a.a; source: synthetic peptide (GL Biochem)
T1 chain: LPKVLHKRTLGLSAMS
The experiment can be described thus: ELISA; biotinylated 16-mer HBx peptides captured on streptavidin-coated plates; secreted Igκ-VHVL-Fc added; HRP anti-human Fc pAb; OD450. The following applies: one partner purified. In general terms: ELISA stands for enzyme-linked immunosorbent assay.
B1: the binding result is “binds”.

For another experiment, the target named is T2, bacterially expressed BPS-encoded HBx protein (Hepatitis B virus genotype B, isolate …, UniProt P20975, strain).
T2 construct: HBx (X protein) of hepatitis B virus genotype B isolate BPS; also called recombinant HBx protein; BPS HBx (ELISA); source: bacterially expressed, purified under denaturing conditions
As to the kind of experiment: ELISA; recombinant BPS HBx coated at 100 ng/well in bicarbonate/carbonate buffer pH 9.6; purified antibody added, 37 °C for 1 h; HRP anti-mouse pAb; OD450. The following applies: both partners purified.
Take B2: the binding result is “binds”.

A further experiment has as its target T1, biotinylated BPS HBx peptide a.a. 89–104. As to the kind of experiment: ELISA; biotinylated 16-mer HBx peptides captured on streptavidin-coated plates at 500 ng/well in PBS; antibody added, 37 °C for 1 h; HRP anti-mouse pAb; OD450. The conditions noted are these: both partners purified.
B2: the binding result is recorded as “binds”. Still for that read-out and setting: to B3 belongs “binds”.

The next experiment has as its target T3, FLAG-tagged wild type BPS HBx (Hepatitis B virus genotype B, isolate …, UniProt P20975, strain).
T3 construct: HBx (X protein) of hepatitis B virus genotype B isolate BPS, 154 a.a; also called FLAG-HBx (wild type); wild-type HBx; source: HEK293T, transfected, in lysate or in fixed cells; HepG2, transfected, in lysate; not shown: FLAG, N-terminal, kept
The experiment can be described thus: co-IP; HEK293T co-transfected with Igκ-VHVL-Fc and FLAG-tagged wild type or mutant BPS HBx; lysate; anti-FLAG as capture antibody; blots with anti-hFc and anti-FLAG. The conditions noted are these: partners not purified.
With B1, the binding result is listed as “binds”.

The target in a further experiment is T4, FLAG-tagged WT (genotype C isolate) HBx (Hepatitis B virus genotype C, isolate …, UniProt P0C686, strain).
T4 construct: 'WT' is here the name of an isolate, not 'wild type'; also called WT HBx; source: HEK293T, transfected, in lysate or in fixed cells; not shown: FLAG, N-terminal, kept
The experiment can be described thus: Western blot; lysates of HEK293T cells transfected with FLAG-tagged HBx variants, 48 hours, resolved and blotted; probed with 2A7; anti-FLAG as control; densitometry normalised to anti-FLAG and to BPS HBx. The following applies: one partner purified. (In general: A western blot detects proteins with antibodies after separation by electrophoresis.)
For the molecule B2, the binding result is “binds”.
